According to US20060263331A1, “Therapeutic use of tumor necrosis factor-alpha mutein” (priority 2002, published 2006):

Legend:
Type in all cases: in vivo, human
Breast Cancer = assay: Clinical monotherapy of rhTNFm1, breast cancer; details: 10 patients
From the text: (§1) Patients were selected based on the following criteria: i) measurable, objective tumor; ii) Karnofsky performance status (KPS)≧60; iii) age 18-75; iv) major organs in basically normal condition; v) no chemotherapy, radiotherapy and biologic therapy within the last month; vi) predicted ≧3 mon. survival; and vii) with patient's informed consent signed.
(§2) Patients were excluded based on the following criteria: i) with history of allergic reactions to TNF or its derivatives; ii) pregnant or lactating women; iii) major organs with obvious damages or malfunction; iv) in ≧38° C. fever; v) with obvious tendency to haemorrhage; vi) with history of hypo- or hypertension; vii) with serious albuminemia; and viii) with strong tendency of disobedience or resistance.
(§3) Patients were removed from the evaluation if any of the following conditions apply: i) treatment was not completed according to the protocol; ii) incomplete records; and iii) treatment using cancer therapies not in the protocol. However, patients who withdrew due to adverse reactions to the therapy were still included in the evaluation.
(§4) The results of the treatment of tumors were evaluated based the following criteria: i) complete response (CR)—complete disappearance of observable pathological changes for at least 4 weeks; ii) partial response (PR)—reduction by ≧50% in tumor size measured by the product of the maximum circular and vertical dimensions for at least 4 weeks; iii) minimum response (MR)—reduction by >25% but <50% in tumor size measured by the product of the maximum circular and vertical dimensions for at least 4 weeks; iv) stabilized (SD)—reduction by ≦25% but without increase by >25% in tumor size measured by the product of the maximum circular and vertical dimensions for at least 4 weeks; and progression (PD): increase by >25% in tumor size in one or more sites.
(§5) Patients rested on day 1 and 2. The treatment cycle was 3-4 weeks.

Malignant melanoma = assay: Clinical monotherapy of rhTNFm1, malignant melanoma; details: 18 patients
From the text: as §1, §2, §3, §4, §5

[1] = KPS of patients treated with rhTNFm1 alone; details: P=0.013, particularly malignant pleural effusion
From the text: as §1, §5

B1: rhTNFm1: Recombinant human TNF-α mutant 1 expressed in E. coli; SEQ ID NO: 3 with N-terminal methionine (FIG. 1, 2) (protein)
chain: MRKRKPVAHVVANPQAEGQLQWLNRRANALLANGVELRDNQLVVPSEGLYLIYSQVLFKGQGCPSTHVLLTHTISRIAVSYQTKVNLLSAIKSPCQRETPEGAEAKPWYEPIYLGGVFQLEKGDRLSAEINRPDYLDFAESGQVYFGIIAQ
modifications: rhTNFm1 with Met
With B1 the “Response Rate (%) CR” value (Breast Cancer) was 0.00%, the “Response Rate (%) CR + PR” value (Breast Cancer) was 0.00% and the “Response Rate (%) PR” value (Breast Cancer) was 0.00%. For the same molecule, the “Efficacy CR” value (Breast Cancer; patient count) was 0, the “Efficacy MR” value (Breast Cancer; patient count) was 0 and the “Efficacy PD” value (Breast Cancer; patient count) was 4. For the same molecule, the “Efficacy PR” value (Breast Cancer; patient count) was 0, the “Efficacy SD” value (Breast Cancer; patient count) was 6 and the “Response Rate (%) CR” value (Malignant melanoma) was 0.00%. The “Response Rate (%) CR + PR” value (Malignant melanoma) was 11.11%, the “Response Rate (%) PR” value (Malignant melanoma) was 11.11% and the “Efficacy CR” value (Malignant melanoma; patient count) was 0. The “Efficacy MR” value (Malignant melanoma; patient count) was 3, the “Efficacy PD” value (Malignant melanoma; patient count) was 3 and the “Efficacy PR” value (Malignant melanoma; patient count) was 2. For the same molecule, the “Efficacy SD” value (Malignant melanoma; patient count) was 10 and the “KPS compared to that prior to the treatment” value [1] was “significantly improved”.
